One data set addresses Cys215 (UniProt position 215, PVVVHCSAGIG). The experiment in a line: kinetics. Particulars: 25 °C; constant ionic strength buffer mix (value not stated); 50 mM sodium acetate, 100 mM Tris, 100 mM bis-Tris; steady-state turnover with the substrate pNPP.
For data set [1], the target named is Asp181 (UniProt position 181, YGTWPDFGVPE). Nature of the data set: kinetics. Particulars: 25 °C; constant ionic strength buffer mix (value not stated); 50 mM sodium acetate, 100 mM Tris, 100 mM bis-Tris; steady-state turnover with the substrate pNPP.
For data set [2], the target named is Asp181 (UniProt position 181, YTTWPDFGVPE). The experiment in a line: kinetics. Particulars: 25 °C; constant ionic strength buffer mix (value not stated); 50 mM sodium acetate, 100 mM Tris, 100 mM bis-Tris; steady-state turnover with the substrate pNPP.
For data set [3], the target named is T1, Cys403 (UniProt position 403, RPVIHCRAGVG). The experiment in a line: kinetics. The conditions noted are these: 25 °C; constant ionic strength buffer mix (value not stated); 50 mM sodium acetate, 100 mM Tris, 100 mM bis-Tris; steady-state turnover with the substrate pNPP.
A further data set concerns the target Asp356 (UniProt position 356, VGNWPDQTAVS). The experiment in a line: kinetics. The conditions noted are these: 25 °C; constant ionic strength buffer mix (value not stated); 50 mM sodium acetate, 100 mM Tris, 100 mM bis-Tris; steady-state turnover with the substrate pNPP.
The target in data set [4] is T1, Cys403. The experiment in a line: chemical modification. Particulars: ligand-free enzyme.

As to PTP1B T177G (Homo sapiens; T177G), the pKa (commonly the pH at which an ionisable group is half protonated) with Cys215 is reported as 5.44 ± 0.37; with Asp181 [1] it was 6.37 ± 0.28.

For “Protein tyrosine phosphatase 1B (PTP1B), wild type (Homo sapiens)”, the figures for the pKa with Cys215 and with Asp181 [2] were 5.08 ± 0.20 and 6.44 ± 0.26, respectively.

As for “YopH (Yersinia protein tyrosine phosphatase), wild type (Yersinia (species not stated in the article))”, the pKa was 5.02 ± 0.27 in the data set with Cys403 [3], 5.58 ± 0.34 with Asp356, 4.6 ± 0.2 with Cys403 [4] and 4.67 ± 0.15 with Cys403 [4] (cited from earlier work).

The values are drawn from publication PMC8297725.
